# Legend:
# [1] = molecular target: T1, WT hIL-1β (human, UniProt P01584 117-269); test: cell-based or functional assay
# [2] = molecular target: T1, WT hIL-1β; test: competitive ELISA on coated WT hIL-1β; canakinumab diluted in series, competitor E64AK-F4-mFc (100 nM)
# [3] = molecular target: T2, E64AK-F4-mFc (mouse, UniProt P01863 123-330 = IgG part); test: ELISA, antigen coated
# T2 construct: scFv fused to the Fc of mouse IgG2a by a linker; also called E64AK-F4-mFc fusion antibody
# T2 sequence (VL, as listed by the source limits assumed, chain 1 of 3): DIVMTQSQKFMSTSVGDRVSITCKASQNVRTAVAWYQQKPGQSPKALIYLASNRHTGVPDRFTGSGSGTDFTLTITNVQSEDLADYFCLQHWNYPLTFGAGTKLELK
# T2 sequence (VH, as listed by the source limits assumed, chain 2 of 3): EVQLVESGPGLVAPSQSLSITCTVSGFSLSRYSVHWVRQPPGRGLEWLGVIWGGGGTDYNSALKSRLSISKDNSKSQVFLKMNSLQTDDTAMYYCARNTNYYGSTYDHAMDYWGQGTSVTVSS
# T2 sequence (P01863 other isoform, or with tags, fused parts or gaps limits assumed, chain 3 of 3): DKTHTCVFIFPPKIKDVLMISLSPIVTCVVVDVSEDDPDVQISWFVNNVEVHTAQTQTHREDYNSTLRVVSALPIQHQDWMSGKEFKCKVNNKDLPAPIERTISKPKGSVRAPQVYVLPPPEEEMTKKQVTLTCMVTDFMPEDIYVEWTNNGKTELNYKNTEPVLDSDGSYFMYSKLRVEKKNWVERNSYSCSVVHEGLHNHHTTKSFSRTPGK
"inhibition of IL-1β-induced activation of HEK-Blue IL-1R cells (SEAP), IC50 [1] [nM]",IC50 [2] [nM],binding result [3],Binder
4.7,2.1,,"Canakinumab (antibody, V domains shown) VH: QVQLVESGGGVVQPGRSLRLSCAASGFTFSVYGMNWVRQAPGKGLEWVAIIWYDGDNQYYADSVKGRFTISRDNSKNTLYLQMNGLRAEDTAVYYCARDLRTGPFDYWGQGTLVTVSS VL: EIVLTQSPDFQSVTPKEKVTITCRASQSIGSSLHWYQQKPDQSPKLLIKYASQSFSGVPSRFSGSGSGTDFTLTINSLEAEDAAAYYCHQSSSLPFTFGPGTKVDIKR"
,,no binding,"hIL-1β63-66A (ligand, also called IL-1β mutant containing four alanine mutations; hIL-1βE63-66A) APVRSLNCTLRDSQQKSLVMSGPYELKALHLQGQDMEQQVVFSMSFVQGEESNDKIPVALGLAAAALYLSCVLKDDKPTLQLESVDPKNYPKKKMEKRFVFNKIEINNKLEFESAQFPNWYISTSQAENMPVFLGGTKGGQDITDFTMQFVSS"

# Source: patent publication US20240425546A1 (NANTONG YICHEN BIOPHARMA, published 2024)
